Measured values as given in patent US20030199022, “Tamoxifen and 4-hydroxytamoxifen-activated system for regulated production of proteins in eukaryotic cells” (Board of Trustees of University of Illinois, published 2003).

Tests used:
ER3M = ER3M (Homo sapiens, UniProt P03372 SEQ:1-595, E203W,Q214A,H216G); assay: EMSA; modestly lower than the other four mutants; details: chain copies: 2 stated; label: labeled
ERα wild type (hERα) = biological target: T1, ERα wild type (hERα) (Homo sapiens, UniProt P03372 SEQ:1-595); assay: EMSA; negligible binding; details: tags: CHO-S whole cell extract; chain copies: 2 stated; label: labeled
T1 chain: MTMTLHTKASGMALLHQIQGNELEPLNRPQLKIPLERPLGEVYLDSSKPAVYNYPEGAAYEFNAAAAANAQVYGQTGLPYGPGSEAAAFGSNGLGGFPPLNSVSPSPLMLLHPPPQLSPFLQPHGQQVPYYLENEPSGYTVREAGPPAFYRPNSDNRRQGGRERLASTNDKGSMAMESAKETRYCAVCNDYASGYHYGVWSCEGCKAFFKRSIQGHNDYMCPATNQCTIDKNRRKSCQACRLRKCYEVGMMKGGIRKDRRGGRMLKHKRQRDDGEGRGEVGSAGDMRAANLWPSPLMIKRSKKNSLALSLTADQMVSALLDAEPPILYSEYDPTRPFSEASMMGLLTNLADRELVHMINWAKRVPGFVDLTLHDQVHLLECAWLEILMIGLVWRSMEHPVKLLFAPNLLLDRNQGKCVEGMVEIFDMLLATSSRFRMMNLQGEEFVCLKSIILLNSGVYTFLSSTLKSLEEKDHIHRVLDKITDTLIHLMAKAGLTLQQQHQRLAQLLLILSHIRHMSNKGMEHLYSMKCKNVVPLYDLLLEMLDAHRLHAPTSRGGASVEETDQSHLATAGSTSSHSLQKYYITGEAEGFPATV
Description: (§1) To compare binding of wild type hERα and the ER mutants to the EREs, protein titrations were performed. Increasing amounts of extracts containing equivalent levels of wild-type ER or ER mutants were incubated with the cERE. The ER:ERE complexes were then analyzed by EMSA.
(§2) To test this idea, synthetic probe (SEQ NO: 63) comprising a perfect palindrome with both half sites representing the imperfect ERE half site in the pS2 gene was prepared (FIG. 1A(ii), pS2 PAL).

ER4 = ER4 (Homo sapiens, UniProt P03372 SEQ:1-595, E203W,Q214A,G215R,H216G); assay: EMSA; details: chain copies: 2 stated; label: labeled
Description: as §1, §2

ER2 = ER2 (Homo sapiens, UniProt P03372 SEQ:1-595, E203W,Q214A,G215R); assay: EMSA; details: chain copies: 2 stated; label: labeled
Description: as §1, §2

ER4.3 = ER4.3 (Homo sapiens, UniProt P03372 SEQ:1-595, E203W,Q214V,G215R,H216P,N217T); assay: EMSA; details: chain copies: 2 stated; label: labeled
Description: as §1, §2

ER3.1 = ER3.1 (Homo sapiens, UniProt P03372 SEQ:1-595, E203W,Q214N,G215R,D218S); assay: EMSA; details: chain copies: 2 stated; label: labeled
Description: as §1, §2

ERα wild type (in cell) = biological target: T2, ERα wild type (in cell) (Homo sapiens, UniProt P03372 SEQ:1-595); assay: cell_activity; HepG2, 10 nM MOX, 2.5 ng plasmid; details: chain copies: 2 inferred
T2 chain: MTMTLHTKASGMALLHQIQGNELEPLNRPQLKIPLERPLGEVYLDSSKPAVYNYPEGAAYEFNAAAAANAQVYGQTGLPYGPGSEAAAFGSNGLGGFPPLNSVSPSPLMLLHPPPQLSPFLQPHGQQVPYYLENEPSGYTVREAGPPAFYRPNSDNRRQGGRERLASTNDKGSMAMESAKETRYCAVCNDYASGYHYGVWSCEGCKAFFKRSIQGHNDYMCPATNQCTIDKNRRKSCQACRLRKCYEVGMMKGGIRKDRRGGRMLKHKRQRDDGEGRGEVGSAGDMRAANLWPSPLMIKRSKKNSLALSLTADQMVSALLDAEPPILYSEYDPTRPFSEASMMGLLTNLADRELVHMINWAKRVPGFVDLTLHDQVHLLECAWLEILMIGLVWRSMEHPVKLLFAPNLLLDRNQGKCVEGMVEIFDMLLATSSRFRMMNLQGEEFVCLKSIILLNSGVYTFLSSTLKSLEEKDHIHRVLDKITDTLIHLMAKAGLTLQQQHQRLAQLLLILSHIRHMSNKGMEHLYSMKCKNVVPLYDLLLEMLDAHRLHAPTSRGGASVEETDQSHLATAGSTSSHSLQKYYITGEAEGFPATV
Description: Fresh medium and (if any) hormones were added. For MCF-7 and 231 cells, transient transfection was carried out using the Tfx™-20 reagent (Promega; Madison, Wis.) according to the manufacturer's direction with minor changes. Briefly, 1×10⁵ cells were plated in each well of 12-well microplates one day before transfection. A 1:3 ratio of DNA to lipid was used. The DMEM/F12 medium without serum was used as carrier for the DNA-lipid mixture. After 1 hour incubation with the DNA-lipid-DMEM/F12 at 37° C., the cells were transferred to fresh DMEM/F12 supplemented with 10% CD-FBS, 50,000 U/I of penicillin, 50 mg/l streptomycin and hormones. […] The cells subjected to either transfection method were harvested 48 hours post-transfection. Reporter assays were performed by lysing the cells in situ with 250 μl of passive lysis buffer (Promega).

ER3M (in cell) = ER3M (in cell) (Homo sapiens, UniProt P03372 SEQ:1-595, E203W,Q214A,H216G); assay: cell_activity; HepG2, 10 nM OHT; details: chain copies: 2 inferred
ER4.3 (in cell) = ER4.3 (in cell) (Homo sapiens, UniProt P03372 SEQ:1-595, E203W,Q214V,G215R,H216P,N217T); assay: cell_activity; HepG2, 10 nM OHT; details: chain copies: 2 inferred

B1: pS2 PAL probe (dsDNA)
DNA 1: AGCTTCTCTATTGGGCCACTGTGGCCCTCATCTGAAGCT
DNA 2: AGCTTCAGATGAGGGCCACAGTGGCCCAATAGAGAAGCT
In the case of B1, the binding signal (ER3M) is reported as > 30 fold higher affinity than WT, the binding signal (ERα wild type (hERα)) is reported as over 100 fold weaker than cERE and the binding signal (ER4) is reported as > 30 fold higher affinity than WT. The binding signal (ER2) was > 30 fold higher affinity than WT, the binding signal (ER4.3) was > 30 fold higher affinity than WT and the binding signal (ER3.1) was > 30 fold higher affinity than WT.

B2: ATL2/cERE (dsDNA)
DNA 1: AAGCTTAGGTCACTGTGACCTATCAAGATATCGAGATAGGTCACTGTGACCTATCGACTCTAGA
DNA 2: TCTAGAGTCGATAGGTCACAGTGACCTATCTCGATATCTTGATAGGTCACAGTGACCTAAGCTT
Binder B2 has an activity (ERα wild type (in cell)) of 41 fold induction.

B3: ATL4/PAL (dsDNA)
DNA 1: AAGCTTGGGCCACTGTGGCCCATCAAGATATCGAGATGGGCCACTGTGGCCCATCGACAGGAATTCACGGGCCACTGTGGCCCATCAAGATATCGAGATGGGCCACTGTGGCCCATCGACTCTAGA
DNA 2: TCTAGAGTCGATGGGCCACAGTGGCCCATCTCGATATCTTGATGGGCCACAGTGGCCCGTGAATTCCTGTCGATGGGCCACAGTGGCCCATCTCGATATCTTGATGGGCCACAGTGGCCCAAGCTT
B3 showed an activity (ER3M (in cell)) of over 80 fold induction and an activity (ER4.3 (in cell)) of over 80 fold induction.
